Experimental findings from doi:10.1101/2023.10.12.561995 (bioRxiv, 2023) are described below.

In test [1] the target is T1, SARS-CoV-2 RBD (wildtype), residues 319-541 of S-protein (SARS-CoV-2 wildtype, UniProt P0DTC2). Description: BLI. (BLI is a label-free optical method that tracks binding on a fibre tip over time.)
In test [2] the target is T1, SARS-CoV-2 RBD (wildtype), residues …. Kind of test: cell-based or functional assay.

B1: R1-26 (mAb, human IgG1) (antibody, V domains shown)
VH: EVQLVESGGGLVQPGGSLRLSCAASGFTFSSYWMSWVRQAPGKGLEWVANIKQDGSEKYYVDSVKGRFTISRDNAKNSLYLQMNSLRAEDTAVYYCARGQLGPWVGVDYWGQGTLVTVSS
VL: NFMLTQPHSVSESPGKTVTISCTGSSGSIASNYVQWYQQRPGSAPTTVIYEDNQRPSGVPDRFSGSIDSSSNSASLTISGLKTEDEADYYCQSYDSSNWVFGGGTQLTVL
Turning to B1, in test [1], binding was characterised by a dissociation constant (Kd) of 3.8 nM. Besides, the “neutralisation of a pseudovirus displaying WT SARS-CoV-2 S-protein, IC50” value in test [2] is 2.7 nM.
